Measurements reported in US20210284734A1 (SYMPHOGEN A S, published 2021).
Changes are numbered by the printed parent chain.

B1: 12819.17149 Fab (Fab, V domains shown)
VH: EVQLLESGGGLVQPGGSLRLSCAASGFTFTRYDMVWVRQAPGKGLEWVAGIGDSNKMTRYAPAVKGRATISRDNSKNTLYLQMNSLRAEDTAVYYCAKGSCIACWDEAGRIDAWGQGTLVTVSS
VL: SYELTQDPAVSVALGQTVRITCSGGGSYDGSSYYGWYQQKPGQAPVTVIYNNNNRPSDIPDRFSGSSSGNTASLTITGAQAEDEADYYCGSYDRPETNSDYVGMFGSGTKVTVL
notes: monomeric Fab fragment
B2: 12865.17150 Fab (Fab, V domains shown)
VH: EVQLLESGGGLVQPGGSLRLSCAASGFDFSDHGMQWVRQAPGKGLEYVGVIDTTGRYTYYAPAVKGRATISRDNSKNTLYLQMNSLRAEDTAVYYCAKTTCVGGYLCNTVGSIDAWGQGTLVTVSS
VL: SYELTQDPAVSVALGQTVRITCSGGGSSSYYGWYQQKPGQAPVTVIYDDTNRPSGIPDRFSGSSSGNTASLTITGAQAEDEADYYCGGYEGSSHAGIFGSGTKVTVL
notes: monomeric Fab fragment
B3: 13112.15380 Fab (Fab, V domains shown)
VH: EVQLLESGGGLVQPGGSLRLSCAASGFTFSSYNMFWVRQAPGKGLEFVAEISGSNTGSRTWYAPAVKGRATISRDNSKNTLYLQMNSLRAEDTAVYYCAKSIYGGYCAGGYSCGVGLIDAWGQGTLVTVSS
VL: SYELTQDPAVSVALGQTVRITCSGGSSDYYGWFQQKPGQAPVTVIYYNNKRPSDIPDRFSGSSSGNTASLTITGAQAEDEADYYCGNADSSVGVFGSGTKVTVL

Tests used:
Assay in all cases: SPR, Fab on captured PD-1-Fc
[1] = target: T1, human PD-1 ECD-Fc chimeric construct 12 (human, UniProt Q15116 21-170)
T1 construct: not shown: human IgG1 Fc, residues P101-K330
T1 chain: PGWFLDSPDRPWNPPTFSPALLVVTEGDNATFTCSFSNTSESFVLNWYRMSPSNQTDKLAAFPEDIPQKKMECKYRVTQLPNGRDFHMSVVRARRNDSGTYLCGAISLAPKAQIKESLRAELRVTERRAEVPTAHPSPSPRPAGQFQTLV

[2] = target: T2, human PD-1 ECD-Fc chimeric construct 21 (human, UniProt Q15116 21-170)
T2 construct: printed run together as I134VK135V; not shown: human IgG1 Fc, residues P101-K330
T2 chain: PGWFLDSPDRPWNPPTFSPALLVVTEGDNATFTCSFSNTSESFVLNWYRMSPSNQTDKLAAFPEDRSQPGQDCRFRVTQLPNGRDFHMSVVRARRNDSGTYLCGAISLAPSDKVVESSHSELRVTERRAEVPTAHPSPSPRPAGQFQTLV

[3] = target: T3, human PD-1 ECD-Fc chimeric construct 2 (human, UniProt Q15116 21-170)
T3 construct: not shown: human IgG1 Fc, residues P101-K330
T3 chain: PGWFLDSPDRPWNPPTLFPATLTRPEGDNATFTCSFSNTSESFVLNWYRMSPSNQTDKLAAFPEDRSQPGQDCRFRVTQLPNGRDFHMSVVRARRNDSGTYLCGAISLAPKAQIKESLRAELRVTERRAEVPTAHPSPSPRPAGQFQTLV

[4] = target: T4, human PD-1 ECD-Fc chimeric construct 17 (human, UniProt Q15116 21-170)
T4 construct: not shown: human IgG1 Fc, residues P101-K330
T4 chain: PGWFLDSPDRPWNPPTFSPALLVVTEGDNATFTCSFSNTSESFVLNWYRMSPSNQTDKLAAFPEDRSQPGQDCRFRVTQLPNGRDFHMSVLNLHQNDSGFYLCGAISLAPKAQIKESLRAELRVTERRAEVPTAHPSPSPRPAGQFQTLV

[5] = target: T5, human PD-1 ECD-Fc chimeric construct 8 (human, UniProt Q15116 21-170)
T5 construct: not shown: human IgG1 Fc, residues P101-K330
T5 chain: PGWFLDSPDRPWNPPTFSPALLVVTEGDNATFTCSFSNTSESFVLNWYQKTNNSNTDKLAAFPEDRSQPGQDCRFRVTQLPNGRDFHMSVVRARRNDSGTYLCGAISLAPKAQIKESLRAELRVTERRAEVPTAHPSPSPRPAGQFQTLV

[6] = target: T6, human PD-1 ECD-Fc chimeric construct 4 (human, UniProt Q15116 21-170)
T6 construct: not shown: human IgG1 Fc, residues P101-K330
T6 chain: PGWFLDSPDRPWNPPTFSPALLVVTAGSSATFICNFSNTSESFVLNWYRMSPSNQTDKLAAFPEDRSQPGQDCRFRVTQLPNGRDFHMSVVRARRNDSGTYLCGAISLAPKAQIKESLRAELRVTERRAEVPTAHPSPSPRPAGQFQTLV

[7] = target: T7, human PD-1 ECD-Fc chimeric construct 18 (human, UniProt Q15116 21-170)
T7 construct: not shown: human IgG1 Fc, residues P101-K330
T7 chain: T4 chain with L91V, N92R, L93A, H94R, Q95R, L102Y, A105L

[8] = target: T8, human PD-1 ECD-Fc chimeric construct 19 (human, UniProt Q15116 21-170)
T8 construct: not shown: human IgG1 Fc, residues P101-K330
T8 chain: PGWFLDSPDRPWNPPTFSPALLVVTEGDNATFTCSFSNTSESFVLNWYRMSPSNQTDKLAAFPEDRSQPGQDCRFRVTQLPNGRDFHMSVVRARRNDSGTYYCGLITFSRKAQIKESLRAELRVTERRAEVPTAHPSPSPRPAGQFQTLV

[9] = target: T9, human PD-1 ECD-Fc chimeric construct 5 (human, UniProt Q15116 21-170)
T9 construct: 'S56I' as printed; not shown: C-terminal human IgG Fc (printed as residues P101-K330)
T9 chain: T6 chain with A26E, S28D, S29N, F36I, T39S

[10] = target: T10, human PD-1 ECD-Fc chimeric construct 10 (human, UniProt Q15116 21-170)
T10 construct: printed run together as P83IE84R; not shown: human IgG1 Fc, residues P101-K330
T10 chain: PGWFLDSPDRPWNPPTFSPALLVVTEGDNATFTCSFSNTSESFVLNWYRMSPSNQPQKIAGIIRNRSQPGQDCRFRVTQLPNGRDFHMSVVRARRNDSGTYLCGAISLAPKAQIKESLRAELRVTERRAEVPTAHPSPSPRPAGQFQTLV

[11] = target: T11, human PD-1 ECD-Fc chimeric construct 11 (human, UniProt Q15116 21-170)
T11 construct: printed run together as P83IE84R; not shown: human IgG1 Fc, residues P101-K330
T11 chain: T10 chain with P56T, Q57D, I59L, R66I, S67P, P69K, G70K

[12] = target: T12, human PD-1 ECD-Fc chimeric construct 23 (human, UniProt Q15116 21-170)
T12 construct: not shown: human IgG1 Fc, residues P101-K330

[13] = target: T13, human PD-1 ECD-Fc chimeric construct 6 (human, UniProt Q15116 21-170)
T13 construct: not shown: human IgG1 Fc, residues P101-K330
T13 chain: T6 chain with A26E, S28D, S29N, I33T, N35S, F36I, T39S, E41L, S42E, V44N

| Binder | KD mutant/KD wild-type [1] | binding result [2] | KD mutant/KD wild-type [3] | KD mutant/KD wild-type [4] | KD mutant/KD wild-type [5] | KD mutant/KD wild-type [6] | KD mutant/KD wild-type [7] | KD mutant/KD wild-type [8] | KD mutant/KD wild-type [9] | KD mutant/KD wild-type [10] | KD mutant/KD wild-type [11] | KD mutant/KD wild-type [12] | KD mutant/KD wild-type [13] | binding result [5] | binding result [8] | KD mutant/KD wild-type [2] |
| --- | --- | --- | --- | --- | --- | --- | --- | --- | --- | --- | --- | --- | --- | --- | --- | --- |
| B1 | 2.2 ratio | no binding (tested: 1 nM to 50 nM) | 2.3 ratio | 0.2 ratio | 6.4 ratio | 0.3 ratio | 3.8 ratio | 175 ratio | 1.2 ratio | 33.7 ratio | 17.7 ratio | 1.7 ratio | 7.1 ratio |  |  |  |
| B2 | 0.6 ratio | no binding (tested: 1 nM to 50 nM) | 0.7 ratio | 0.5 ratio |  | 0.6 ratio | 4.6 ratio |  | 0.9 ratio | 13.8 ratio | 5.4 ratio | 1 ratio | 0.2 ratio | no binding (tested: 1 nM to 50 nM) | no binding (tested: 1 nM to 50 nM) |  |
| B3 | 0.6 ratio |  | 1 ratio | 0.7 ratio | 1.6 ratio | 0.6 ratio | 1.5 ratio | 0.8 ratio | 2.5 ratio | 1 ratio | 0.8 ratio | 1.5 ratio | 0.8 ratio |  |  | 0.5 ratio |
